In assay [1] the target is PD-1 and LAG-3 on CD4+ and CD8+ cells of patients' peripheral blood. In words: receptor occupancy by flow cytometry on patients' whole blood, CD8+ cells; Emax model.
Assay [2] has the same target. Nature of the assay: receptor occupancy by flow cytometry on patients' whole blood, CD4+ cells; Emax model of % binding against DART-I concentration.
The target is the same in assay [3]. Nature of the assay: receptor occupancy by flow cytometry on patients' whole blood, CD8+ cells; Emax model of % binding against DART-I concentration.
The target is the same in assay [4]. In words: receptor occupancy by flow cytometry on patients' whole blood, CD4+ cells; Emax model.

B1: DART-I (bispecific antibody, human IgG4 S228P)
chain 1: DIQMTQSPSSLSASVGDRVTITCRASQDVSSVVAWYQQKPGKAPKLLIYSASYRYTGVPSRFSGSGSGTDFTLTISSLQPEDFATYYCQQHYSTPWTFGGGTKLEIKGGGSGGGGQVQLVQSGAEVKKPGASVKVSCKASGYSFTSYWMNWVRQAPGQGLEWIGVIHPSDSETWLDQKFKDRVTITVDKSTSTAYMELSSLRSEDTAVYYCAREHYGTSPFAYWGQGTLVTVSSGGCGGGEVAACEKEVAALEKEVAALEKEVAALEKESKYGPPCPPCPAPEFLGGPSVFLFPPKPKDTLYITREPEVTCVVVDVSQEDPEVQFNWYVDGVEVHNAKTKPREEQFNSTYRVVSVLTVLHQDWLNGKEYKCKVSNKGLPSSIEKTISKAKGQPREPQVYTLPPSQEEMTKNQVSLTCLVKGFYPSDIAVEWESNGQPENNYKTTPPVLDSDGSFFLYSRLTVDKSRWQEGNVFSCSVMHEALHNHYTQKSLSLSLG
chain 2: EIVLTQSPATLSLSPGERATLSCRASESVDNYGMSFMNWFQQKPGQPPKLLIHAASNQGSGVPSRFSGSGSGTDFTLTISSLEPEDFAVYFCQQSKEVPYTFGGGTKVEIKGGGSGGGGQVQLVQSGAEVKKPGASVKVSCKASGYTFTDYNMDWVRQAPGQGLEWMGDINPDNGVTIYNQKFEGRVTMTTDTSTSTAYMELRSLRSDDTAVYYCAREADYFYFDYWGQGTTLTVSSGGCGGGKVAACKEKVAALKEKVAALKEKVAALKE
For the molecule B1, the concentration at which 90% of max RO is achieved came to 0.1 µg/mL in assay [1] and 0.6 µg/mL in assay [4]. The half-maximal effective concentration (EC50) in assay [2] was determined as 0.045 µg/mL; in assay [3] it was 0.011 µg/mL.

The record behind these values is US20230056230A1.
